The values that follow come from IntAct's records for PubMed 19298369.

B1: Sigma factor AlgU negative regulatory protein (Pseudomonas aeruginosa (strain ATCC 15692 / PAO1 / 1C / PRS 101 / LMG 12228)), P38107 (parent)
chain: MSREALQETLSAVMDNEADELELRRVLAACGEDAELRSTWSRYQLARSVMHREPTLPKLDIAAAVSAALADEAAPPKAEKGPWRMVGRLAVAASVTLAVLAGVRLYNQNDALPQMAQQGTTPQIALPQVKGPAVLAGYSEEQGAPQVITNSSSSDTRWHEQRLPIYLRQHVQQSAVSGTESALPYARAASLENR
partner: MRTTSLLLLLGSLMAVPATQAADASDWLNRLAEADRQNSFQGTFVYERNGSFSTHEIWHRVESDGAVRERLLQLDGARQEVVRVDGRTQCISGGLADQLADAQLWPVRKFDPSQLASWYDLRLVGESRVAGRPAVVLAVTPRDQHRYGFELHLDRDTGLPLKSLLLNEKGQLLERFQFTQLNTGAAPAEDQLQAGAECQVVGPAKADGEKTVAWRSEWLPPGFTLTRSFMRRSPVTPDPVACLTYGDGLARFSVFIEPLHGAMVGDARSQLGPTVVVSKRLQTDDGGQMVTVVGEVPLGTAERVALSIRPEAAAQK

This assay covers variants of B1. Conditions: with mucb_pseae mucB.
For MSREALQETLSAVMDNEADELELRRVLAACGEDAELRSTWSRYQLARSVMHREPTLPKLDIAAAVSAALADEAAPPKAEKGPWRMVGRLAVAASVTLAVLAGVRLYNQNDALPQMAQQGTTPQIALPQVKGPAVLAGYSEEQGAPQVITNSSSCDTRWHEQRLPIYLRQHVQQSAVSGTESALPYARAASLENR [S154C], the “effect of a mutation on the interaction” value was “decreasing interaction strength”.
